T1: GPC3 peptide on HLA-A*24:02 (human)
T1 peptide: EYILSLEEL

T2: GPC3 peptide on HLA-A2 (human)
T2 peptide: FVGEFFTDV

T3: FOXM1 peptide on HLA-A*24:02 (human)
T3 peptide: IYTWIEDHF

B1: e1D8 (TCR, V domains shown)
Valpha: GEDVEQSLFLSVREGDSSVINCTYTDSSSTYLYWYKQEPGAGLQLLTYIFSNMDMKQDQRLTVLLNKKDKHLSLRIADTQTGDSAIYFCAENHSSASKIIFGSGTRLSIRP
Vbeta: DSGVTQTPKHLITATGQRVTLRCSPRSGDLSVYWYQQSLDQGLQFLIQYYNGEERAKGNILERFSAQQFPDLHSELNLSSLELGDSALYFCASSVGSGRNYEQYFGPGTRLTVT
B2: i2B7 (TCR, V domains shown)
Valpha: AQSVAQPEDQVNVAEGNPLTVKCTYSVSGNPYLFWYVQYPNRGLQFLLKYITGDNLVKGSYGFEAEFNKSQTSFHLKKPSALVSDSALYFCAVNPTGGGNKLTFGTGTQLKVEL
Vbeta: DARVTQTPRDKVTEMGQEVTMRCQPILGHNTVFWYRQTMMQGLELLAYFRNRAPLDDSGMPKDRFSAEMPDATLATLKIQPSEPRDSAVYFCASGLGGNQPQHFGDGTRLSIL
B3: 52B11 (TCR, V domains shown)
Valpha: QKEVEQDPGPLSVPEGAIVSLNCTYSNSAFQYFMWYRQYSRKGPELLMYTYSSGNKEDGRFTAQVDKSSKYISLFIRDSQPSDSATYLCAQRIVMEYGNKLVFGAGTILRVKS
Vbeta: EPEVTQTPSHQVTQMGQEVILRCVPISNHLYFYWYRQILGQKVEFLVSFYNNEISEKSEIFDDQFSVERPDGSNFTLKIRSTKLEDSAMYFCASSEGAEAFFGQGTRLTVV
B4: ⑨5C6 (TCR, V domains shown)
Valpha: AQSVTQPDIHITVSEGASLELRCNYSYGATPYLFWYVQSPGQGLQLLLKYFSGDTLVQGIKGFEAEFKRSQSSFNLRKPSVHWSDAAEYFCAVGSPSGYSTLTFGKGTMLLVSP
Vbeta: EAQVTQNPRYLITVTGKKLTVTCSQNMNHEYMSWYRQDPGLGLRQIYYSMNVEVTDKGDVPEGYKVSRKEKRNFPLILESPSPNQTSLYFCASSPTRFYEQYFGPGTRLTVT
B5: ⑧2D9 (TCR, V domains shown)
Valpha: QKEVEQNSGPLSVPEGAIASLNCTYSDRGSQSFFWYRQYSGKSPELIMFIYSNGDKEDGRFTAQLNKASQYVSLLIRDSQPSDSATYLCAVNMDGNNRLAFGKGNQVVVIP
Vbeta: DAGITQSPRHKVTETGTPVTLRCHQTENHRYMYWYRQDPGHGLRLIHYSYGVKDTDKGEVSDGYSVSRSKTEDFLLTLESATSSQTSVYFCASVYGSEAFFGQGTRLTVV
B6: (46)2A6 (TCR, V domains shown)
Valpha: RKEVEQDPGPFNVPEGATVAFNCTYSNSASQSFFWYRQDCRKEPKLLMSVYSSGNEDGRFTAQLNRASQYISLLIRDSKLSDSATYLCKISGGYNKLIFGAGTRLAVHP
Vbeta: DSGVTQTPKHLITATGQRVTLRCSPRSGDLSVYWYQQSLDQGLQFLIQYYNGEERAKGNILERFSAQQFPDLHSELNLSSLELGDSALYFCASSVGGGLGTEAFFGQGTRLTVV
B7: i7E6, TRA of SEQ ID NO: 139 (TCR, V domains shown)
Valpha: KQEVTQIPAALSVPEGENLVLNCSFTDSAIYNLQWFRQDPGKGLTSLLLIQSSQREQTSGRLNASLDKSSGRSTLYIAASQPGDSATYLCAVKRRAAGNKLTFGGGTRVLVKP
Vbeta: DSGVTQTPKHLITATGQRVTLRCSPRSGDLSVYWYQQSLDQGLQFLIQYYNGEERAKGNILERFSAQQFPDLHSELNLSSLELGDSALYFCASSPGGGASSPLHFGNGTRLTVT
B8: eC1 (TCR, V domains shown)
Valpha: GESVGLHLPTLSVQEGDNSIINCAYSNSASDYFIWYKQESGKGPQFIIDIRSNMDKRQGQRVTVLLNKTVKHLSLQIAATQPGDSAVYFCAGRTGFQKLVFGTGTRLLVSP
Vbeta: DSGVTQTPKHLITATGQRVTLRCSPRSGDLSVYWYQQSLDQGLQFLIQYYNGEERAKGNILERFSAQQFPDLHSELNLSSLELGDSALYFCASSVGGGLYNEQFFGPGTRLTVL
B9: i7E6, TRA of SEQ ID NO: 138 (TCR, V domains shown)
Valpha: AQRVTQPEKLLSVFKGAPVELKCNYSYSGSPELFWYVQYSRQRLQLLLRHISRESIKGFTADLNKGETSFHLKKPFAQEEDSAMYYCALANQAGTALIFGKGTTLSVSS
Vbeta: DSGVTQTPKHLITATGQRVTLRCSPRSGDLSVYWYQQSLDQGLQFLIQYYNGEERAKGNILERFSAQQFPDLHSELNLSSLELGDSALYFCASSPGGGASSPLHFGNGTRLTVT
B10: il2G6, TRA of SEQ ID NO: 129 (TCR, V domains shown)
Valpha: LAKTTQPISMDSYEGQEVNITCSHNNIATNDYITWYQQFPSQGPRFIIQGYKTKVTNEVASLFIPADRKSSTLSLPRVSLSDTAVYYCLVGHSGNTPLVFGKGTRLSVIA
Vbeta: DSGVTQTPKHLITATGQRVTLRCSPRSGDLSVYWYQQSLDQGLQFLIQYYNGEERAKGNILERFSAQQFPDLHSELNLSSLELGDSALYFCASSVGGGAGNTIYFGEGSWLTVV
B11: il2G6, TRA of SEQ ID NO: 130 (TCR, V domains shown)
Valpha: RKEVEQDPGPFNVPEGATVAFNCTYSNSASQSFFWYRQDCRKEPKLLMSVYSSGNEDGRFTAQLNRASQYISLLIRDSKLSDSATYLCVVNTGRRALTFGSGTRLQVQP
Vbeta: DSGVTQTPKHLITATGQRVTLRCSPRSGDLSVYWYQQSLDQGLQFLIQYYNGEERAKGNILERFSAQQFPDLHSELNLSSLELGDSALYFCASSVGGGAGNTIYFGEGSWLTVV
B12: i6E9 (TCR, V domains shown)
Valpha: RKEVEQDPGPFNVPEGATVAFNCTYSNSASQSFFWYRQDCRKEPKLLMSVYSSGNEDGRFTAQLNRASQYISLLIRDSKLSDSATYLCVVNLGNYGQNFVFGPGTRLSVLP
Vbeta: DSGVTQTPKHLITATGQRVTLRCSPRSGDLSVYWYQQSLDQGLQFLIQYYNGEERAKGNILERFSAQQFPDLHSELNLSSLELGDSALYFCASSVGGGLSNEQFFGPGTRLTVL
B13: eC7 (TCR, V domains shown)
Valpha: SQQGEEDPQALSIQEGENATMNCSYKTSINNLQWYRQNSGRGLVHLILIRSNEREKHSGRLRVTLDTSKKSSSLLITASRAADTASYFCAVRYSSASKIIFGSGTRLSIRP
Vbeta: DSGVTQTPKHLITATGQRVTLRCSPRSGDLSVYWYQQSLDQGLQFLIQYYNGEERAKGNILERFSAQQFPDLHSELNLSSLELGDSALYFCASSAGGGSNNEQFFGPGTRLTVL
B14: i3C2 (TCR, V domains shown)
Valpha: GQNIDQPTEMTATEGAIVQINCTYQTSGFNGLFWYQQHAGEAPTFLSYNVLDGLEEKGRFSSFLSRSKGYSYLLLKELQMKDSASYLCAVRVWKAAGNKLTFGGGTRVLVKP
Vbeta: GAVVSQHPSWVICKSGTSVKIECRSLDFQATTMFWYRQFPKQSLMLMATSNEGSKATYEQGVEKDKFLINHASLTLSTLTVTSAHPEDSSFYICSARRLAGGGNEQFFGPGTRLTVL
B15: eD3 (TCR, V domains shown)
Valpha: RKEVEQDPGPFNVPEGATVAFNCTYSNSASQSFFWYRQDCRKEPKLLMSVYSSGNEDGRFTAQLNRASQYISLLIRDSKLSDSATYLCVVKGGNNFNKFYFGSGTKLNVKP
Vbeta: NAGVTQTPKFQVLKTGQSMTLQCAQDMNHNSMYWYRQDPGMGLRLIYYSASEGTTDKGEVPNGYNVSRLNKREFSLRLESAAPSQTSVYFCASSHRVNSNQPQHFGDGTRLSIL
B16: G9 (TCR, V domains shown)
Valpha: KQEVTQIPAALSVPEGENLVLNCSFTDSAIYNLQWFRQDPGKGLTSLLLIQSSQREQTSGRLNASLDKSSGRSTLYIAASQPGDSATYLCAVTRRALTFGSGTRLQVQP
Vbeta: KAGVTQTPRYLIKTRGQQVTLSCSPISGHRSVSWYQQTPGQGLQFLFEYFSETQRNKGNFPGRFSGRQFSNSRSEMNVSTLELGDSALYLCASSVTSGRTHTDTQYFGPGTRLTVL
B17: i2F3 (TCR, V domains shown)
Valpha: RKEVEQDPGPFNVPEGATVAFNCTYSNSASQSFFWYRQDCRKEPKLLMSVYSSGNEDGRFTAQLNRASQYISLLIRDSKLSDSATYLCVVNKSWGKLQFGAGTQVVVTP
Vbeta: DSGVTQTPKHLITATGQRVTLRCSPRSGDLSVYWYQQSLDQGLQFLIQYYNGEERAKGNILERFSAQQFPDLHSELNLSSLELGDSALYFCASSAGTSGNEQFFGPGTRLTVL
B18: (21)1D5 (TCR, V domains shown)
Valpha: QKEVEQDPGPLSVPEGAIVSLNCTYSNSAFQYFMWYRQYSRKGPELLMYTYSSGNKEDGRFTAQVDKSSKYISLFIRDSQPSDSATYLCAMSGHFNKFYFGSGTKLNVKP
Vbeta: KAGVTQTPRYLIKTRGQQVTLSCSPISGHRSVSWYQQTPGQGLQFLFEYFSETQRNKGNFPGRFSGRQFSNSRSEMNVSTLELGDSALYLCASSLRAGELFFGEGSRLTVL
B19: 1F5 (TCR, V domains shown)
Valpha: EDQVTQSPEALRLQEGESSSLNCSYTVSGLRGLFWYRQDPGKGPEFLFTLYSAGEEKEKERLKATLTKKESFLHITAPKPEDSATYLCAASNSGGSNYKLTFGKGTLLTVNP
Vbeta: DSGVTQTPKHLITATGQRVTLRCSPRSGDLSVYWYQQSLDQGLQFLIQYYNGEERAKGNILERFSAQQFPDLHSELNLSSLELGDSALYFCASSVDGKGTQYFGPGTRLLVL
B20: F5 (TCR, V domains shown)
Valpha: KDQVFQPSTVASSEGAVVEIFCNHSVSNAYNFFWYLHFPGCAPRLLVKGSKPSQQGRYNMTYERFSSSLLILQVREADAAVYYCAVNQAGTALIFGKGTTLSVSS
Vbeta: DTEVTQTPKHLVMGMTNKKSLKCEQHMGHRAMYWYKQKAKKPPELMFVYSYEKLSINESVPSRFSPECPNSSLLNLHLHALQPEDSALYLCASSQERTSGRSADTQYFGPGTRLTVL
B21: ②1E7 (TCR, V domains shown)
Valpha: AQSVSQHNHHVILSEAASLELGCNYSYGGTVNLFWYVQYPGQHLQLLLKYFSGDPLVKGIKGFEAEFIKSKFSFNLRKPSVQWSDTAEYFCAVRHGGTGTASKLTFGTGTRLQVTL
Vbeta: GAVVSQHPSWVICKSGTSVKIECRSLDFQATTMFWYRQFPKQSLMLMATSNEGSKATYEQGVEKDKFLINHASLTLSTLTVTSAHPEDSSFYICSARALGGYTFGSGTRLTVV

The first test concerns the target T1, GPC3 peptide on HLA-A*24:02. Description: cytokine release.
In the case of B1, the binding result is “recognises”.

A further test has as its target T2, GPC3 peptide on HLA-A2. Description: multimer staining.
In the case of B2, the binding result is reported as “recognises”. Turning to B3, the binding result is given as “recognises”.

With B4, the binding result was “recognises”. The same measure, in the same setting: for B5 the value was “recognises”.

In a further test the target is T1, GPC3 peptide on HLA-A*24:02. Description: multimer staining.
As to B6, the binding result is reported as “recognises”. Still for that read-out and setting: for B7 the value was “recognises”; for B8, “recognises”. Same read-out and setting: for B9 the value was “recognises”. Regarding B10, the binding result was “recognises”. Still for that read-out and setting: for B11 the value was “recognises”. Still for that read-out and setting: for B12 the value was “recognises”. Turning to B13, the binding result is listed as “recognises”. Turning to B14, the binding result is “recognises”. As for B15, the binding result is on record as “recognises”.

In the case of B16, the binding result is reported as “recognises”.

Take B17: the binding result is listed as “recognises”.

A further test has as its target T3, FOXM1 peptide on HLA-A*24:02. Description: multimer staining.
Regarding B18, the binding result is “recognises”. The same measure, in the same setting: for B19 the value was “recognises”.

In the case of B20, the binding result is reported as “recognises”. Same read-out and setting: the same measure for B21: “recognises”.

Source of the values: patent publication US20250339504A1 (published 2025).
